Laboratory results taken from patent US20240261333A1, “NOVEL TARGETS FOR ENHANCING ANTI-TUMOR IMMUNITY” (THE BROAD INSTITUTE, INC., priority 2021, published 2024).

Molecular target: T1, B3GNT2 (Homo sapiens, UniProt Q9NY97)
T1 construct: The respective ORFs of candidate genes [CD274 (NM_014143), MCL1 (NM_021960), JUNB (NM_002229), and B3GNT2 (NM_006577)] were synthesized; expressed in transfected cells; host or cells: A375 melanoma cells (lentiviral ORF overexpression)
T1 sequence (Q9NY97 1-397): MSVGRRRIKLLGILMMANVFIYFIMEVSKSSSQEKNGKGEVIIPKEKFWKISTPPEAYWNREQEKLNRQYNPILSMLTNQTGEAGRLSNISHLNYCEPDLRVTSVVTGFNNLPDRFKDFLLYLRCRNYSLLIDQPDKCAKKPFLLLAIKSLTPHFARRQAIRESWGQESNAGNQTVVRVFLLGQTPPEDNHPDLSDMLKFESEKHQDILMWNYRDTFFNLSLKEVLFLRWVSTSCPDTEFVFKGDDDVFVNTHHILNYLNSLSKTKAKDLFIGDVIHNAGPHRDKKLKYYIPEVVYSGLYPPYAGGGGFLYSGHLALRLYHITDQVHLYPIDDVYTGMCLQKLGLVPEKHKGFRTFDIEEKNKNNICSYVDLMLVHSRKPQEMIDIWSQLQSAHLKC
Assay: Co-IP of FLAG-tagged B3GNT2 followed by mass spectrometry
Type: cell-based
Set-up: C-term IgG / C-term flag: unit not given here
Experimental: Cells were plated in 10-cm cell culture dishes and grown to 60-80% confluency. For each condition, two biological replicates were harvested for co-IP. Cells were washed with PBS and 4 mL of lysis buffer (20 mM HEPES, 1% Triton X-100, 150 mM NaCl, 1 mM EDTA, and 10% glycerol) containing protease inhibitor cocktail was added. Cells were scraped and lysate was incubated at 4° C. under rotary agitation for 1 h. Lysate was centrifuged at 14,000×g for 10 min at 4° C. Supernatant was transferred to a new tube and an aliquot was taken as the input. […] For Western blots, 10 μg/mL Chicken Anti-FLAG (Aves labs ET-DY100) and IgY control (R&D Systems AB-101-C) antibodies were biotinylated (Thermo Fisher Scientific 90407) and added to the respective conditions. Lysates with antibodies were incubated at 4° C. under rotary agitation overnight. For each mL of lysate, 50 μL of Pierce Protein A/G Magnetic Beads (Mass spectrometry; Thermo Fisher Scientific 88803) or Pierce Streptavidin Magnetic Beads (Western blot; Thermo Fisher Scientific 88817) was washed twice with lysis buffer. Lysates with antibodies were added to the beads and incubated at 4° C. under rotary agitation for 4 h. Beads were washed with lysis buffer 3 times and resuspended in lysis buffer for storage. […] This solution was subjected to solid phase extraction to concentrate the peptides and remove unwanted reagents followed by injection onto a Shimadzu HPLC with fraction collector. Eight fractions were collected and after concentration were injected on a Waters NanoAcquity HPLC equipped with a self-packed Aeris 3 μm C18 analytical column 0.075 mm by 20 cm, (Phenomenex). Peptides were eluted using standard reverse-phase gradients. The effluent from the column was analyzed using a Thermo Orbitrap Elite mass spectrometer (nanospray configuration) operated in a data dependent manner for 54 minutes. […] Scaffold Q+S (Proteome Software) was used to provide consensus reports for the identified proteins.

[1] = Co-IP followed by mass spectrometry of B3GNT2, C-term tag, FLAG pull-down
[2] = Co-IP followed by mass spectrometry of B3GNT2, C-term tag, IgG pull-down
[3] = Co-IP followed by mass spectrometry of B3GNT2, N-term tag, FLAG pull-down
[4] = Co-IP followed by mass spectrometry of B3GNT2, N-term tag, IgG pull-down
[5] = Co-IP with FLAG antibody, C-terminally FLAG-tagged B3GNT2, mass spectrometry count, unit not given
[6] = Co-IP with FLAG antibody, N-terminally FLAG-tagged B3GNT2, mass spectrometry count, unit not given
[7] = Co-IP with IgG control antibody, C-terminally FLAG-tagged B3GNT2, mass spectrometry count, unit not given
[8] = Co-IP with IgG control antibody, N-terminally FLAG-tagged B3GNT2, mass spectrometry count, unit not given

Substance | C-term flag [1] | C-term IgG [2] | N-term FLAG [3] | N-term IgG [4] | C-term flag [5] | N-term FLAG [6] | C-term IgG [7] | N-term IgG [8]
PIGR |  |  |  |  | 5 | 2 | 0 | 0
PKM | 3 | 2 | 3 | 2 |  |  |  | 
PPIA |  |  |  |  | 0 | 6 | 0 | 0
PRBP1 | 9 | 6 | 6 | 7 |  |  |  | 
PRKDC |  |  |  |  | 11 | 24 | 0 | 0
PRRC2A | 5 | 3 | 2 | 3 |  |  |  | 
PSMA1 |  |  |  |  | 0 | 2 | 0 | 0
PSMB5 | 0 | 0 | 4 | 0 |  |  |  | 
PSMD3 |  |  |  |  | 0 | 3 | 0 | 0
PSMD4 |  |  |  |  | 0 | 2 | 0 | 0
RAB1B |  |  |  |  | 2 | 0 | 0 | 0
RPL28 | 16 | 3 | 8 | 3 |  |  |  | 
S100A8 |  |  |  |  | 3 | 15 | 5 | 4
S100A9 |  |  |  |  | 9 | 18 | 5 | 0
SEL1L |  |  |  |  | 5 | 3 | 0 | 0
SPTAN1 | 3 | 0 | 0 | 0 |  |  |  | 
SQSTM1 |  |  |  |  | 43 | 3 | 3 | 0
SRSF3 | 7 | 3 | 6 | 4 |  |  |  | 
STRAP |  |  |  |  | 3 | 4 | 0 | 0
SUPT16H | 3 | 0 | 0 | 0 |  |  |  | 
TCP1 | 3 | 0 | 0 | 0 |  |  |  | 
TFAM | 3 | 0 | 0 | 0 |  |  |  | 
TNC |  |  |  |  | 10 | 0 | 0 | 0
TNKS1BP1 | 8 | 2 | 2 | 4 |  |  |  | 
TUBB |  |  |  |  | 117 | 164 | 10 | 10
TUBB2A |  |  |  |  | 0 | 128 | 0 | 0
TUBB3 |  |  |  |  | 82 | 115 | 0 | 0
UGGT1 |  |  |  |  | 5 | 2 | 0 | 0

The next lines start with the values.

C-term flag [1] | C-term IgG [2] | N-term FLAG [3] | N-term IgG [4] | C-term flag [5] | N-term FLAG [6] | C-term IgG [7] | N-term IgG [8] | Substance
2 | 0 | 4 | 0 |  |  |  |  | PCMT1
 |  |  |  | 2 | 0 | 0 | 0 | PPIB
15 | 6 | 6 | 11 |  |  |  |  | PRRC2C
 |  |  |  | 0 | 2 | 0 | 0 | PSMA4
2 | 0 | 4 | 0 |  |  |  |  | PSMA7
 |  |  |  | 0 | 3 | 0 | 0 | PSMC4
 |  |  |  | 0 | 2 | 0 | 0 | PXN
 |  |  |  | 2 | 0 | 0 | 0 | RNASE1
8 | 2 | 0 | 4 |  |  |  |  | RPS24
 |  |  |  | 0 | 2 | 0 | 0 | SEC16A
 |  |  |  | 2 | 0 | 0 | 0 | SLC27A4
9 | 3 | 4 | 5 |  |  |  |  | SRSF1
6 | 0 | 0 | 0 |  |  |  |  | SSRP1
 |  |  |  | 3 | 0 | 0 | 0 | SUMF2
5 | 2 | 5 | 5 |  |  |  |  | SYNM
10 | 4 | 5 | 10 |  |  |  |  | TAF15
 |  |  |  | 9 | 0 | 0 | 0 | TECR
 |  |  |  | 2 | 0 | 0 | 0 | TOR1AIP2
2 | 0 | 3 | 2 |  |  |  |  | TPI1
0 | 0 | 6 | 0 |  |  |  |  | TRIM21
 |  |  |  | 0 | 76 | 0 | 0 | TUBA1B
 |  |  |  | 119 | 161 | 13 | 0 | TUBB4B
411 | 337 | 402 | 452 |  |  |  |  | VIM
 |  |  |  | 3 | 0 | 0 | 0 | XRCC5
 |  |  |  | 7 | 0 | 0 | 0 | YBX3
